Test results: PMC6783313 (Nature structural & molecular biology, 2019)

B1: ClpX(E183Q) from Listeria monocytogenes (natural protein)
chain: not shown
B2: ClpP2(S98A) from Listeria monocytogenes (natural protein)
chain: not shown

Legend:
cryo-EM structure = biological target: the molecule itself; assay: cryo-EM structure
[1] = biological target: B1; assay: HDX-MS

Row | Binder | stoichiometry N (cryo-EM structure) | binding result [1]
1 | B1 | 6 | –
2 | B2 | 7 | binds
